System: MS2 coat protein
Assay: apparent KD of MS2 coat protein; designed switch direction (-1 OFF switch, 1 ON switch): -1; higher = weaker reporter binding
Procedure, shortened: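 Three titration conditions were used: no input, 200 uM small-molecule ligand, and an oligonucleotide input. In each, SNAP-549-labelled MS2 coat protein was raised from 0.7 or 1.5 nM, doubling, to 3 µM over designed RNA switches transcribed on Illumina chips by stalled E. coli RNA polymerase. Curve fits of normalised cluster fluorescence gave values whose per-design median over clusters is the apparent KD.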

[1] = Eterna round: R95, input ligand: FMN 200 uM
[2] = Eterna round: R95, input ligand: microRNA oligo, concentration not stated
[3] = Eterna round: R95, input ligand: none
[4] = input ligand: microRNA oligo, concentration not stated

Sequence | apparent KD of MS2 coat protein [1] | apparent KD of MS2 coat protein [2] | apparent KD of MS2 coat protein [3] | apparent KD of MS2 coat protein (input ligand: FMN 200 uM) | apparent KD of MS2 coat protein [4] | apparent KD of MS2 coat protein (input ligand: none)
GAAAAGUGAGGAUAUGGUAAAAGAAAAAGAAAAAGAAAACUCCAGAAGGCACAUGAGGAUCACCCAUGUAAAAG [salish99_ex4_r3_005] (puzzle: Exclusion 4) | 26.9 nM | 19.4 nM | 23.6 nM | – | – | –
CUUGUUUAUGUAGGAUAUGCCUGGCGUGCCUUUGCAGAAGGACAUGAGGAUCACCCAUGUAACAUGAGGAUCACCCAUGUCGCA [salish99_ExNG1_r04_103] (Eterna round: R96, puzzle: Exclusion NG 1) | – | – | – | 1190 nM | 555 nM | 854 nM
AGUACUAACACGAGUGUGUUAGUACAAUAAGCUUGUGAAACAUGAGGAUCACCCAUGUCCUCAUAAGCUCGUCUUAU [salish99_TOv2_r3_073] (puzzle: Sensor v3, turn-off variant 2) | 17.8 nM | 516 nM | 15.1 nM | – | – | –
CCGCUCCGUGUAGGAUAUUGGCGUGCUCUGCGCCGAGAAGGACAUGAGGAUCACCCAUGUAUGUUAUUAUCACGCGUGGCGCAU [Design 78] (Eterna round: R96, puzzle: Exclusion NG 1) | – | – | – | 30.6 nM | 11.5 nM | 18.6 nM
UCAAUGCGAGGAUAUACGCACAAUUACAUGAGGAUCACCCAUGUCAUGAACUUUGGUAAGGUAGAAGGCGCUCCGU [Eternabot (L1) Solution 13] (Eterna round: R97, puzzle: Exclusion 5) | – | – | – | 32.4 nM | – | 41 nM
CGGCUACGAUGAGGAUAUACGCACAUGAGGAUCACCCAUGUAAAUCACGGGUAAAGAUCGUCAUCGUAGAAGGCAUAAGGGCCC [Ormale] (Eterna round: R96, puzzle: Exclusion NG 2) | – | – | – | 33 nM | 23.9 nM | 30.1 nM
GGAUCGAAUGUCAGGAUAUACCACUGGAUACAGUGGUAGAAGGGACAUGAGGAUCACCCAUGUGUUAUCGAUCC [Fiskers BMX 4 - 56] (puzzle: Brourd's mod of Exclusion 4) | – | 36.5 nM | – | – | – | –
GGGUAGGGAGGAUAUCCAAUAUAUGACAUGAGGAUCACCCAUGUUUCCACUCGUACCUCCGGAGAAGGCCCAUCCC [Ex5 #14] (Eterna round: R97, puzzle: Exclusion 5) | – | – | – | 25.6 nM | – | 21.4 nM
CUUUUGUGAGGAUAUCAGUAGUAAAAUAAUAAAAUUACUACUGAGAAGGCACAUGAGGAUCACCCAUGUUCCUC [salish99_ex4_r3_019] (puzzle: Exclusion 4) | – | 36.4 nM | – | – | – | –
AUCCUUAACAAGGAUAUCGGGCGGGAAAUUGUUUGAGAAGGUGUAACAUGAGGAUCACCCAUGUUAAACGUGGA [-18.8, -18.6 kcal, A 32%] (Eterna round: R97, puzzle: Exclusion 6) | – | – | – | 22.3 nM | – | 23.4 nM
GGUGCGUCUGUGAGGAUAUGCUGGUCCUUGGAUCAGCAGAAGGCACAUGAGGAUCACCCAUGUGGUGUCGUACC [salish99_Bmod_Ex4_028] (puzzle: Brourd's mod of Exclusion 4) | – | 143 nM | – | – | – | –
AGUACUAACACGGCUGUGUUAGUACAAUAAGCUUGUGAAACAUGAGGAUCACCCAUGUCCUCAUAAGCUCGUCUUAU [salish99_TOv2_r3_078] (puzzle: Sensor v3, turn-off variant 2) | 18 nM | 580 nM | 15.6 nM | – | – | –
AGAUGCUCAAGUCGACAUGAGGAUCACCCAUGUACAGUUAAUGAGGAUAUCCGAGAUAAAUAAUAGGAGAAGGCGUGAUCAUGA [Ex NG3 #7] (Eterna round: R96, puzzle: Exclusion NG 3) | – | – | – | 284 nM | 383 nM | 458 nM
CUUUAGUAAGGAUAUCAGCUUAGGAGGUUGGUAAUGAGAGCUGAGAAGGUACAUGAGGAUCACCCAUGUUAGUU [JL Zatite mod 9] (puzzle: Exclusion 4) | – | 17.1 nM | – | – | – | –
GGAUCGAAUGUGAGGAUAUGCAGGUCCUUGGAUCUGCAGAAGGCACAUGAGGAUCACCCAUGUGAUCAAGAUCC [Mat - Exclusion 4 - Eli Mod - D48] (Eterna round: R97, puzzle: Brourd's mod of Exclusion 4) | – | – | – | 63 nM | – | 772 nM
UAAAAGCUAGGAUAUAGAGACAGAAACUUGAGGAUCACCCAAGUGAGUCAAGCUAUGUCGCUAGAAGGAGCGAAAA [Qubetizaa] (Eterna round: R97, puzzle: Exclusion 5) | – | – | – | 278 nM | – | 32 nM
AUCGUGCAGCAAAGCUGUACGAGUACAUGAGGAUCACCCAUGUAGGAUAUGGUACGCUUUGCGUGCUAGAAGGAUAUGUGUAGG [Mat - Exclusion NG 3 - Mod of JL - D83] (Eterna round: R96, puzzle: Exclusion NG 3) | – | – | – | 35.7 nM | 31 nM | 35.7 nM

Sequence | apparent KD of MS2 coat protein [1] | apparent KD of MS2 coat protein [2] | apparent KD of MS2 coat protein [3] | apparent KD of MS2 coat protein (input ligand: FMN 200 uM) | apparent KD of MS2 coat protein [4] | apparent KD of MS2 coat protein (input ligand: none)
GAAAACGCUGAGGAUAUUUCUGAUCAAAGCAGCAAAGAAGGCAGCACAUGAGGAUCACCCAUGUGGUCUUCAAA [jl-ex6-4.03 ViennaUCT mod] (Eterna round: R97, puzzle: Exclusion 6) | – | – | – | 907 nM | – | 32.1 nM
ACUAGCUUUUUGCAUAGUAGGUUUGGUGCUUCGUAUGCUACAUGAGGAUCACCCAUGUAUUACUGAUUUCGUCGUUU [JR_SV3TOV2_Sub093] (puzzle: Sensor v3, turn-off variant 2) | 24.6 nM | 41.1 nM | 27.3 nM | – | – | –
UAAAUUGGGUAGGAUAUGUUUGUUUAAAGAGCCACAGAAGGACCCACAUGAGGAUCACCCAUGUAUCACCUAUG [Eternabot (L2) Solution 60] (Eterna round: R97, puzzle: Exclusion 6) | – | – | – | 33.6 nM | – | 27.1 nM
GGUCAGAUGGUAGGAUAUCCAUAUCGAGUGACCCUUUCAUAACAUGAGGAUCACCCAUGUCGGUGGGAGAAGGGCCGUACGGUG [salish99_ExNG02_R04_023] (Eterna round: R96, puzzle: Exclusion NG 2) | – | – | – | 39.5 nM | 41.2 nM | 48.8 nM
GGCCGUAAUAAGGAUAUCACUAGCCUCGGCUAGUGAGAAGGUAUUACAUGAGGAUCACCCAUGUGAUCAGGCCA [E6/3-B2] (Eterna round: R97, puzzle: Exclusion 6) | – | – | – | 862 nM | – | 160 nM
ACUAGAUGAGGAUAUGCAUAUUUUCGUGUUCUUCUAGGUUAACAUGAGGAUCACCCAUGUAGAAGGCGUCUAUC [Exclusion 2 - 25] (puzzle: Exclusion 2) | – | 21.6 nM | – | – | – | –
UGUGUGAGACAGGAUAUGCCGGUUGUAUUACUGGUAGAAGGGUCUACAUGAGGAUCACCCAUGUGGCCGGCCGG [Ex6 #82] (Eterna round: R97, puzzle: Exclusion 6) | – | – | – | 73.1 nM | – | 26.2 nM
AAGAAACAUGAGGAUCACCCAUGUGAGGAUAUGGCCCGCCCGGCGUGAGCUGGUUUUGUCAGAAGGCGCAAAGG [salish99_ex1_r4_018] (Eterna round: R97, puzzle: Exclusion 1) | – | – | – | 53.9 nM | – | 50.8 nM
GUCAGCUCGUGAGGAUAUACAUGAUAGAUCGAUUAAUUAAUUAAUUUAACAUGAGGAUCACCCAUGUAGAAGGCACGAGCUGAC [ENG2/1-A1] (Eterna round: R96, puzzle: Exclusion NG 2) | – | – | – | – | 30.9 nM | –
UGAUCUUUUGUUAGGAUAUGCUGUUUUUUUUUUCAGCAGAAGGGACAUGAGGAUCACCCAUGUUUUGUCAUAAA [Magic-06] (puzzle: Brourd's mod of Exclusion 4) | – | 14.4 nM | – | – | – | –
AUAAGGUCAGGAUAUGCUUGGCUGAUUCUGGUGUCCAAAUGACAUGAGGAUCACCCAUGUAGAAGGGACAUCAG [Usgeledi] (Eterna round: R97, puzzle: Exclusion 2) | – | – | – | 16.1 nM | – | 15.1 nM
UGUUGGCGAGGAUAUACAUGAGGAUCACCCAUGUGAGAGAAAAAAGUGAGGAAGAAAAGUAGAAGGCGCUGACC [salish99_ex3_r3_042] (puzzle: Exclusion 3) | 165 nM | 41 nM | 55.1 nM | – | – | –
CACAAGCUUUUUUGAUGCAUUUUAGUGGGUGUGGGUUGGACAUGAGGAUCACCCAUGUUUAUGAAGCUCGAUCUUUU [JR_SV3TOV2_Sub081] (puzzle: Sensor v3, turn-off variant 2) | 92.7 nM | 170 nM | 124 nM | – | – | –
AUCGUGUGAGGAUAUCGAUUAUGGAGGUCUAGGUCCAUACGCGAGAAGGCACAUGAGGAUCACCCAUGUAAUGG [jl-ex4-4.31 ViennaUCT mod] (Eterna round: R97, puzzle: Exclusion 4) | – | – | – | 126 nM | – | 309 nM
ACAUGAGGAUCACCCAUGUGACCAUGAUGGCUGAUGUAGAGCUAGGAUAUGAGUGAAUAUCUAUCUCAGAAGGAGCUUGACUGG [Deportation 48 - Jieux - Exclusion NG 3] (Eterna round: R96, puzzle: Exclusion NG 3) | – | – | – | 16.7 nM | 15.4 nM | 21.3 nM
CAGUACUGAGGAUAUACAUGAGGAUCACCCAUGUGAAAAAGCUACGAAAGUAGCAAAUGUAGAAGGCAGUACUG [Ex3: 806] (Eterna round: R96, puzzle: Exclusion 3) | – | – | – | – | 29.9 nM | –
UUAUAGUGAGGAUAUAUAUGCAGUAAACCUUUAAAUUUAUAACUUGAGGAUCACCCAAGUAGAAGGCGCGUUAU [JR_Ex2_Sub054] (Eterna round: R97, puzzle: Exclusion 2) | – | – | – | 15.3 nM | – | 16.9 nM

From the supplement of paper PMC9170038
